In patent publication US20260250398A1 (ANTLERA THERAPEUTICS, published 2026):

Molecular target: T1, LRP6 (low-density lipoprotein receptor-related protein 6) (UniProt O75581 20-1370, limits assumed)
T1 sequence (looked up): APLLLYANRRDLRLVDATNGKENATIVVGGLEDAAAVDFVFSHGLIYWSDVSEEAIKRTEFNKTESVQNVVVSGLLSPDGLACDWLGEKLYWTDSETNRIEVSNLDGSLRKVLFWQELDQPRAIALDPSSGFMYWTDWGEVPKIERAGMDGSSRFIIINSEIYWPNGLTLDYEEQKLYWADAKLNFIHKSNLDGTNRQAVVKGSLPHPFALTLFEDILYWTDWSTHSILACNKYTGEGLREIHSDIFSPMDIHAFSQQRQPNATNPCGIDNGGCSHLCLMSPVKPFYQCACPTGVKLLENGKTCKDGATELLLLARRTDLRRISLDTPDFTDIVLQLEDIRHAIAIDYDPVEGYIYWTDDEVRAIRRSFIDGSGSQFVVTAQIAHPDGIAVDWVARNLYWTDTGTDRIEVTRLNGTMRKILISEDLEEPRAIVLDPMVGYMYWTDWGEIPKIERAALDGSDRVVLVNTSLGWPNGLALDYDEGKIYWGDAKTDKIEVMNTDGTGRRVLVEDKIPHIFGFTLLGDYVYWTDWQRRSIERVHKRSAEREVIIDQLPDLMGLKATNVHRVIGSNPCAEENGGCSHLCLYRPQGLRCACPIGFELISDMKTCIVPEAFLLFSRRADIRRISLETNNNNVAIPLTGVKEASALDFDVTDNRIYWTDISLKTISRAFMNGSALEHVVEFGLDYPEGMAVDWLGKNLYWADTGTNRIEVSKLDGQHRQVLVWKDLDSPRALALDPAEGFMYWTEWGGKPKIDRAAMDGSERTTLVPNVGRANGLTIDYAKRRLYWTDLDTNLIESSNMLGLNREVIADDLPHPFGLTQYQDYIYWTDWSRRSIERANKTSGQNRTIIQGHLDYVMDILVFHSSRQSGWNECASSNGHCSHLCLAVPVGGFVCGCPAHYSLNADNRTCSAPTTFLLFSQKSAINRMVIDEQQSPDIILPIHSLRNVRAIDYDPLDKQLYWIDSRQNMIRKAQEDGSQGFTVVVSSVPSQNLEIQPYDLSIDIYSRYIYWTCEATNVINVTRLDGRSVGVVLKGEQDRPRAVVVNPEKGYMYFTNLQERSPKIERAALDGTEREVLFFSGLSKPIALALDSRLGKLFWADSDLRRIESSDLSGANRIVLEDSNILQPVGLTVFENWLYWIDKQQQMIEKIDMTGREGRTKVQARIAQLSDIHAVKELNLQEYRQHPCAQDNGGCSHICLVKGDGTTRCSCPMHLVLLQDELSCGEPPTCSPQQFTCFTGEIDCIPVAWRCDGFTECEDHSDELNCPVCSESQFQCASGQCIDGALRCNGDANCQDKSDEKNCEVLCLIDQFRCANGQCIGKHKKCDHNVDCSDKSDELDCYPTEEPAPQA
Assay: cell-based or functional assay

B1: CT0001 (FZD IgG-LRP Diabody; paratopes 5016; 2539, 2542) (bispecific antibody)
heavy 1: EVQLVESGGGLVQPGGSLRLSCAASGFNIHSSSIHWVRQAPGKGLEWVAATYSSFGSITYADSVKGRFTISADTSKNTAYLQMNSLRAEDTAVYYCARYHHPFGYALDYWGQGTLVTVSSASTKGPSVFPLAPSSKSTSGGTAALGCLVKDYFPEPVTVSWNSGALTSGVHTFPAVLQSSGLYSLSSVVTVPSSSLGTQTYICNVNHKPSNTKVDKKVEPKSCDKTHTCPPCPAPELLGGPSVFLFPPKPKDTLMISRTPEVTCVVVDVSHEDPEVKFNWYVDGVEVHNAKTKPREEQYNSTYRVVSVLTVLHQDWLNGKEYKCKVSNKALPAPIEKTISKAKGQPREPQVYTLPPIRELMTSNQVSLSCAVKGFYPSDIAVEWESNGQPENNYKTTPPVLDSDGSFFLVSKLTVDKSRWQQGNVFSCSVMHEALHNHYTQKSLSLSPGKSGSETPGTSESATPESGGGEVQLVESGGGLVQPGGSLRLSCAASGFNISSYYIHWVRQAPGKGLEWVASIYSSYGYTSYADSVKGRFTISADTSKNTAYLQMNSLRAEDTAVYYCARTVRGSKKPYFSGWAMDYWGQGTLVTVSSGGGGSDIQMTQSPSSLSASVGDRVTITCRASQSVSSAVAWYQQKPGKAPKLLIYSASSLYSGVPSRFSGSRSGTDFTLTISSLQPEDFATYYCQQYSWGPFTFGQGTKVEIK
heavy 2: EVQLVESGGGLVQPGGSLRLSCAASGFNIHSSSIHWVRQAPGKGLEWVAATYSSFGSITYADSVKGRFTISADTSKNTAYLQMNSLRAEDTAVYYCARYHHPFGYALDYWGQGTLVTVSSASTKGPSVFPLAPSSKSTSGGTAALGCLVKDYFPEPVTVSWNSGALTSGVHTFPAVLQSSGLYSLSSVVTVPSSSLGTQTYICNVNHKPSNTKVDKKVEPKSCDKTHTCPPCPAPELLGGPSVFLFPPKPKDTLMISRTPEVTCVVVDVSHEDPEVKFNWYVDGVEVHNAKTKPREEQYNSTYRVVSVLTVLHQDWLNGKEYKCKVSNKALPAPIEKTISKAKGQPREPMVFDLPPSREEMTKNQVSLWCMVKGFYPSDIAVEWESNGQPENNYKTTPPVLDSDGSFFLYSKLTVDKSRWQQGNVFSCSVMHEALHNHYTQKSLSLSPGKSGSETPGTSESATPESGGGEVQLVESGGGLVQPGGSLRLSCAASGFNISYSSIHWVRQAPGKGLEWVAYISSYYGYTYYADSVKGRFTISADTSKNTAYLQMNSLRAEDTAVYYCARAHYFPWAGAMDYWGQGTLVTVSSGGGGSDIQMTQSPSSLSASVGDRVTITCRASQSVSSAVAWYQQKPGKAPKLLIYSASSLYSGVPSRFSGSRSGTDFTLTISSLQPEDFATYYCQQYYWPITFGQGTKVEIK
light: DIQMTQSPSSLSASVGDRVTITCRASQSVSSAVAWYQQKPGKAPKLLIYSASSLYSGVPSRFSGSRSGTDFTLTISSLQPEDFATYYCQQGVYLFTFGQGTKVEIKRTVAAPSVFIFPPSDEQLKSGTASVVCLLNNFYPREAKVQWKVDNALQSGNSQESVTEQDSKDSTYSLSSTLTLSKADYEKHKVYACEVTHQGLSSPVTKSFNRGEC
TOPFLASH % Wnt Maxima: 57 % Wnt Maxima
